Data reported in publication PMC11723951.

Molecular target: CBX5^MBD chimera (CBX5 in which the chromodomain was replaced by the MeCP2 methyl-DNA binding domain) (UniProt P51608)

KMT5C heterochromatin retention domain (HRD), wild type, fluorescent fusion (domain or fragment)
chromocenter partition coefficient of the HRD in Suv39h1/2 null MEFs upon CBX5^MBD co-expression (1.33 without it; 11.54 in wild-type cells), live-cell imaging: 4.43
